Measured values from patent US20110217317A1 (published 2011).
Where a chain is given by its changes, count along the chain named.

T1: Rhesus D antigen (human, UniProt Q02161 2-417)
T1 construct: whole, on cells; Presented on RhD-positive erythrocytes in all assays; also called RhD; RhD antigen
T1 sequence (looked up): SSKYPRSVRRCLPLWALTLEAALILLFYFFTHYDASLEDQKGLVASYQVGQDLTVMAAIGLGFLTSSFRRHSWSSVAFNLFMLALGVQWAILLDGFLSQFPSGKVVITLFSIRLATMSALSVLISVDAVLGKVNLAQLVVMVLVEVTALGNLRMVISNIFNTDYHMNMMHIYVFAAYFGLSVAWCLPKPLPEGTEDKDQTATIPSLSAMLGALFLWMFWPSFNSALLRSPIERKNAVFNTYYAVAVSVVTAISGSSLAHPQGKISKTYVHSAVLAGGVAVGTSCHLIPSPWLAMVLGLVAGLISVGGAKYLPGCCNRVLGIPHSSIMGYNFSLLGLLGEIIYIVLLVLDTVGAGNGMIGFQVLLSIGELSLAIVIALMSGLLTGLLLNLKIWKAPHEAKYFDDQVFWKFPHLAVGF

B1: RhD242.181A03 (Fab, V domains shown)
VH: EVQLVESGGGVVQPGRSLRLSCAASGFTFSNHGMHWVRQAPGKGLEWVAVIWYDGSNKYYADSVKGRFTISRDNSKNTLYLQMNSLRAEDTAVYYCAREMASYSSSWYRRYYYYVMDVWGKGTTVTVSS
VL: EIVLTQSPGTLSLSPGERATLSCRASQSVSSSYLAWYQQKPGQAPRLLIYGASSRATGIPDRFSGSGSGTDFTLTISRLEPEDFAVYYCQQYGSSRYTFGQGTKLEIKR
notes: Tested as Fab (periplasmic extract)
B2: RhD246.179B10 (Fab, V domains shown)
VH: B1 VH with S7T, N31S, H32Y, A101V, V115N
VL: LSSELTQDPAVSVTLGQTVRITCQGDSLRHSYASWYQQKPGQAPILVIYGKNIRPSGIPDRFSGSTSGNTASLTITGAQAEDGGDYYCNSRDTSTDHYVFGDGTRVTVVG
notes: as for B1
B3: RhD241.119B05 (Fab, V domains shown)
VH: QVQLQESGPGLVKPSETLSLICTVSGGSISSNYWSWIRQPPGKGLEWIGYIYYSGNTNYNPSLKSRVTISLDTSKNQFSLKLRSVTAADTAVYYCAREWRQYGSGIRGSRYYYGMDVWGQGTLVTVSS
VL: EIVLTQSPVTLSLSPGERATLSCRASQSVSSGYLAWYQQKPGQAPRLLIYGTSIRATGIPDRFSGSGSGTDFTLTISRLEPEDFAVYYCQQYGSSPLYSFGQGTKVDIKR
notes: as for B1
B4: RhD300.134H09 (Fab, V domains shown)
VH: QVQLVESGGGVVQPGRSLRLSCAASGFTFSSYGMHWVRQAPGKGLEWVAVIWYDGSNKYYADSVKGRFTISRDNSKNTLYLQMNSLRAEDTAVYYCAREFYTRSGLWSQGYSYYMDVWGKGTTVTVSS
VL: QTVVTQEPSFSVSPGGTVTLTCGLSSGSVSARYYPSWYQQTPGQPPRTLIHSTNTRSSGVPDRFSGSILGNKAALTITGAQADDESDYYCVLYMGSGPWVFGGGTKLTVLG
notes: as for B1
B5: RhD244.158B10 (Fab, V domains shown)
VH: QVQLVESGGGVVQPGRSLRLSCAASGFSFSSYGMHWVRQAPGKGLEWVAIIWYDGSNKLYADSVKGRFTISRDNSRNTLYLQMSSVRAEDTAVYYCARDSVRGVSRWGTQKYYAMDVWGQGTTVTVSS
VL: DIQMTQSPSSLSASVGDRVIITCRASQSVNRYLNWYQQKPGKAPKLLIYAASSLQGGVPSRFSGSGSGTDFTLTISSLQREDFATYYCQQSYRTRTFGQGTKVEIKR
notes: as for B1
B6: RhD301.160A04 (Fab, V domains shown)
VH: QVQLVESGGGVVQPGRSLRLSCAASGFTFSSYGMHWVRQAPGKGLEWVAVIWFDGGNKYYADSAKGRFTISRDNSKNTLYLQMNSLRAEDTAVYYCARDASVLSGLVTRRLVYYGMDVWGQGTTVTVSS
VL: DVVMTQSPLSLPVTPGEPASISCRSSQSLLHRNGYNYLNWYLQKPGQSPQLLIYLGSNRASGVPDRFSGSGSGTDFTLKISGVEAEDVAFYYCMQGLRTPYTFGQGTKLEIKR
notes: as for B1
B7: RhD292.109A02 (Fab, V domains shown)
VH: QVQLVETGGGVVQPGRSLRLSCAASGFTFSSYGMHWVRQAPGKGLEWVAVIWSDGSNKYYADSVKGRFTISRDNSRNTLYLQMNSLRAEDTAVFYCAREQGGYSSSWYRRYYYYYMDVWGQGTTVTVSS
VL: DIQMTQSPSSLSASVGDRVTITCRASQSISSWLNWYQQKPGKAPNLLIFAASTLQSGVPSRFSGSGSGTDFTLTISSLQPEDFATYYCQQSYSSSVYTFGQGTKLEIKR
notes: as for B1
B8: RhD296.126A03 (Fab, V domains shown)
VH: EVQLVESGGGVVQPGRSLRLSCEASGFTFSNYGMHWFRQAPGKGLEWVAIIWYDGSNKHYADSVKGRFTISRDNSKNTLYLQMNSLRAEDTAVYFCAREIASRGYSRYLYYFDSWGQGTLVTVSS
VL: B7 VL with W32Y, N45K, T53S, T72S, S95L, V96A, Y97L, Q101G, L105V
notes: as for B1
B9: RhD295.119B11 (Fab, V domains shown)
VH: QVQLVESGGGLVQPGGSLRLSCVGSGFTFRSFDMNWVRQAPGKGLEWISYINSRGNTRYYVDSVKGRFTISRDNAKNSLYLQMNSLRAEDTAVYYCARDLYGDYDPKSYYYYGMDVWGQGTMVTVSS
VL: EIVLTQSPGTLSLSPGERATLSCRASQSFSSGYLAWYQQKPGQAPRLLIYGASNRATGIPDRFSGSGSGTDFTLTISRLEPEDFAVYYCQHYGSSPPITFGQGTRLEIKR
notes: as for B1
B10: RhD159.119B09 (Fab, V domains shown)
VH: EVQLVETGGGLVQPGGSLRLSCAASGFSFRSYDMNWVRQAPGKGLEWVSYISGRGSTTYYADSVKGRFTISRDNAKNSLYLQMNSLRAEDTAVYYCARDLYGDYDPKSYYYYAMDVWGHGTTVTVSS
VL: EIVMTQSPGTLSLSPGERATLSCRASHTVSSGYLAWYQQKPGQAPRLLIYGASNRATGVPDRFGGSGSGTDFTLTISRLEPEDSAVYFCQQYGTSPGVTFGQGTRLEIER
notes: as for B1
B11: RhD299.127A12 (Fab, V domains shown)
VH: QVQLVESGGGVVQPGRSLRLSCAASGFTFSNFGMHWVRQAPGKGLEWVAVIWYDGSNKDYADSVKGRFTISRDNSKRTLYLQMNSLRAEDTAVYYCARELARGRLRDLDYWGQGTLVTVSS
VL: QAVVTQEPSLTVSPGGTVTLTCASSTGAVTTGYYPNWFQQKPGQAPRALIYSTSKKHSWTPARFSGSLLGGKAALTLSGVQPEDEAEYYCLLFYGGAQLGVFGGGTKLTVLG
notes: as for B1
B12: RhD294.119E10 (Fab, V domains shown)
VH: QVQLVESGGGVVQPGRSLRLSCAASGFSFSNYGMHWVRQAPGKGLEWVAVISYDGSEKYYADSVKGRFTISRDNSKKTLYLQMNSLRAEDTAMYYCKNKVGATRRAVVAVDIWGQGTMVTVSS
VL: EIVLTQSPGTLSLSPRERATLSCRANQYVNSNHLAWYQQKPGQAPRLLLYGASRRATGIPDRFSGSGTGTDFTLIISRLEPEDFAVYFCQLYDHSRPMYTFGQGTKLEIKR
notes: as for B1
B13: RhD243.109A05 (Fab, V domains shown)
VH: QVQLVESGGGVVQPGRSLRLSCAASGFTFSTYGMHWVRQAPGKGLEWVAVIWYDGSQKYYVDSVKGRFTISRDNSKNTLYLQMNSLRAEDTAVYYCAREVAVRGVIRYYYGMDVWGQGTTVTVSS
VL: DIQLTQSPSSLAASVGDRVIITCRSGQGIRNYLNWYQQKPGKAPKLLIYAASFLQSGVPSRFSGSGSGTDFTLTISSLQPEDFATYNCQQSYSDPWTFGQGTKVEIKR
notes: as for B1
B14: RhD293.109A09 (Fab, V domains shown)
VH: B13 VH with Q1E, S30N, Q57N, V61A, G111A
VL: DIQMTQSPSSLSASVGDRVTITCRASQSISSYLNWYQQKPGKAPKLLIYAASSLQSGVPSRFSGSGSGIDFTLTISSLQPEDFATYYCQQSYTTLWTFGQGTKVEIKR
notes: as for B1
B15: RhD161.119E09 (Fab, V domains shown)
VH: EVQLVESGGGVVQSGRSLRLSCAASGFTFSNNGMHWVRQAPGKGLEWVAFIWYDGSNKYYADSVKGRFTISRDNSKNTLYLQMDGLRAEDSAVYYCAREEIAARLYSRYHYAMDVWGQGTMVTVSS
VL: DIQMTQSPSFLSASVGDRVTITCRASQGIRRYLAWFQQKPGKAPKLLIFSASTLQSGVPSRFSGSGSGTEFTLTISSLQPEDFATYYCQQLSSYPPYTFGQGTKLEIKR
notes: as for B1
B16: RhD245.164E06 (Fab, V domains shown)
VH: EVQLVQSGGGVVQPGRSPRLSCAASGFTFSSYGMHWVRQAPGKGLEWVAFIWYDGSNKYYADSVKGRFTISRDNSKNTLYLQMNSLRAEDTAVYYCARDLRNHVFWSGYSTSFDYWGQGTLVTVSS
VL: DIQMTQSPSSLSASVGDGITITCRASQSVRSYLNWYQQKPGKAPELLIYAASRLQSGVPSRFSGSGSGTDFTLTISSLQPEDFATYYCQHSYSTPVTFGQGTKVEVKR
notes: as for B1
B17: RhD160.119C07 (Fab, V domains shown)
VH: EVQLVESGGGVVQPGRSLRLSCAASGFTFSNYGMHWVRQAPGKGLEWVAVIWYDGSNRFYADSVKGRFTISRDNSKNTLYLQMNNLRAEDTALYSCAREITTTVVVRRHYLMDIWGQGTTVTVSS
VL: DIQLTQSPSSLSASVGDRVSITCRASQGISNSLAWYQQKPGKVPKLLIYAASTLQSGVPSRFSGGGSGTDFTLTISSLQPEDVATYYCQKYNSAPFAFGPGTKVDIKR
notes: as for B1

Assays:
Rhesus D antigen [1] = biological target: T1, Rhesus D antigen; assay: agglutination assay, Fab on RhD(+)/RhD(-) RBC mix
Method: After each round of panning single colonies were picked for analysis of their binding properties to red blood cells in agglutination assays. Briefly, single colonies were inoculated into 2×YT/100 μg/mL carbenicillin/1% glucose and shaken overnight at 37° C. The next day, DeepWell plates were inoculated using 900 μl 2×YT/100 μg/mL carbenicillin/0.1% glucose and 10 μl overnight culture. The plates were shaken for two hours at 37° C., before Fab induction was performed with addition of 300 μl 2×YT/100 μg/mL carbenicillin/0.25 mM IPTG per well. The plate was shaken overnight at 30° C. The following day, the bacteria were pelleted by centrifugation (3200×g, 4° C., 10 minutes), and re-suspended in 100 μl of 0.8 M NaCl, 0.2×PBS, 8 mM EDTA, and incubated for 15 minutes on ice in order to perform a periplasmic extraction of the Fab fragments. The plate was transferred to −20° C. and finally the suspension was thawed and centrifugation was performed for 10 minutes at 4° C. and 3200×g. The periplasmic extract was used in ELISA assays for analysis of Fab content and in agglutination assays to evaluate the binding potential of the individual Fab fragments. The agglutination assay was performed as follows: RhD(−) and RhD(+) RBC were mixed in a 1:1 ratio, and washed 3 times in PBS. After the final wash, the cell mix was re-suspended in 1% BSA in PBS at a density of 1% cells, 50 μl was added to each well of a 96-plate. Periplasmic extracts were added to the wells. As a positive control Rhesogamma P immunoglobulin (Aventis) was used according to the manufacturer's instructions. The plates were incubated for one hour at room temperature with gentle shaking. The cells were washed three times with PBS, before the secondary antibody was added (goat anti-human Fab/FITC conjugate, Sigma F5512) in a 1:100 dilution. The plates were left for agglutination for one hour at room temperature without shaking. Fab fragments positive in the agglutination assay was determined by visual inspection, and recorded by taking a picture. Quantization of the binding activity of the Fab fragments was performed by FACS analysis of the agglutination samples.

Rhesus D antigen [2] = biological target: T1, Rhesus D antigen; assay: Fab screening on red blood cells (agglutination/FACS)

Row | Binder | binding result (Rhesus D antigen [1]) | binding result (Rhesus D antigen [2])
1 | B1 | binds | 
2 | B2 | binds | 
3 | B3 | binds | 
4 | B4 |  | binds
5 | B5 | binds | 
6 | B6 |  | binds
7 | B7 | binds | 
8 | B8 | binds | 
9 | B9 | binds | 
10 | B10 | binds | 
11 | B11 |  | binds
12 | B12 | binds | 
13 | B13 | binds | 
14 | B14 | binds | 
15 | B15 | binds | 
16 | B16 | binds | 
17 | B17 | binds | 
